Results on 1 protein are retold here after doi:10.1101/2024.11.23.624964 (bioRxiv, 2024).

This data set deals with the molecule itself. Kind of data set: thioflavin-T fluorescence.

B1: TDP-43-low complexity domain (LCD) (aa: 274-414) (domain or fragment, UniProt Q13148 274-414, looked up)
chain: GRFGGNPGGFGNQGGFGNSRGGGAGLGNNQGSNMGGGMNFGAFSINPAMMAAAQAALQSSWGMMGMLASQQNQSGPSGNNQNQGNMQREPNQAFGSGNNSYSGSNSGAAIGWGSASNAGSGSGFNGGFGSSMDSKSSGWGM
On to B1, for which the binding result is on record as “binds”.
